# Molecular target: T1, mouse IFNAR2 (mouse) (UniProt O35664)
# T1 sequence: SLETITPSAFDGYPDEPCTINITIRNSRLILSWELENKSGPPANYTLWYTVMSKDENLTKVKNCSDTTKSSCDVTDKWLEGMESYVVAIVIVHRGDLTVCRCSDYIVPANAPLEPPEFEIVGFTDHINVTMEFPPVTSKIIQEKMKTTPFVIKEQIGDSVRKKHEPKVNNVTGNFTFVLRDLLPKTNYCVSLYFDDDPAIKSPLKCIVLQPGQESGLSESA
# Assay: AlphaSeq, replicates
row,apparent Kd (pooled screen),Substance
1,20 nM,IFNA2_L49P (from UniProt P01563 24-188) (ligand)

# Molecular target: T1, mouse IFNAR2 (mouse)
# Assay: AlphaSeq
row,Substance,apparent Kd (pooled screen)
1,IFNA2b_L49P_K156T (from UniProt P01563 24-188) (ligand),65 nM
2,IFNA2b_L49P_K187L (from UniProt P01563 24-188) (ligand),85 nM
3,IFNA2b_L49P_K187Y (from UniProt P01563 24-188) (ligand),90 nM
4,IFNA2b_L49P_L176P (from UniProt P01563 24-188) (ligand),69 nM
5,IFNA2b_L49P_N179G (from UniProt P01563 24-188) (ligand),84 nM
6,IFNA2b_L49P_R167A (from UniProt P01563 24-188) (ligand),2200 nM
7,IFNA2b_L49P_R167H (from UniProt P01563 24-188) (ligand),480 nM
8,IFNA2b_L49P_R167K (from UniProt P01563 24-188) (ligand),77 nM
9,IFNA2b_L49P_R167M (from UniProt P01563 24-188) (ligand),2380 nM
10,IFNA2b_L49P_R167S (from UniProt P01563 24-188) (ligand),65800 nM
11,IFNA2b_L49P_R172Q (from UniProt P01563 24-188) (ligand),8550 nM
12,IFNA2b_L49P_R172S (from UniProt P01563 24-188) (ligand),6190 nM
13,IFNA2b_L49P_R172V (from UniProt P01563 24-188) (ligand),566 nM
14,IFNA2b_L49P_R172W (from UniProt P01563 24-188) (ligand),9950 nM
15,IFNA2b_L49P_V165E (from UniProt P01563 24-188) (ligand),16400 nM
16,IFNA2b_L49P_V165T (from UniProt P01563 24-188) (ligand),5950 nM
17,IFNA2b_M44N_A168N (from UniProt P01563 24-188) (ligand),1500 nM
18,IFNA2b_M44N_A168S (from UniProt P01563 24-188) (ligand),545 nM
19,IFNA2b_M44N_E155R (from UniProt P01563 24-188) (ligand),7660 nM
20,IFNA2b_M44N_K156E (from UniProt P01563 24-188) (ligand),24400 nM
21,IFNA2b_M44N_R167L (from UniProt P01563 24-188) (ligand),2260 nM
22,IFNA2b_M44N_R167T (from UniProt P01563 24-188) (ligand),7010 nM
23,IFNA2b_M44N_S175E (from UniProt P01563 24-188) (ligand),484 nM

# The next lines start with the values.
row,apparent Kd (pooled screen),Substance
1,461 nM,IFNA2b_L49P_A168K (from UniProt P01563 24-188) (ligand)
2,321 nM,IFNA2b_L49P_A168Q (from UniProt P01563 24-188) (ligand)
3,75 nM,IFNA2b_L49P_E164D (from UniProt P01563 24-188) (ligand)
4,697 nM,IFNA2b_L49P_K135I (from UniProt P01563 24-188) (ligand)
5,415 nM,IFNA2b_L49P_K187R (from UniProt P01563 24-188) (ligand)
6,6440 nM,IFNA2b_L49P_R167W (from UniProt P01563 24-188) (ligand)
7,6870 nM,IFNA2b_L49P_R172A (from UniProt P01563 24-188) (ligand)
8,47300 nM,IFNA2b_L49P_R172E (from UniProt P01563 24-188) (ligand)
9,2260 nM,IFNA2b_L49P_R172G (from UniProt P01563 24-188) (ligand)
10,310 nM,IFNA2b_L49P_R172I (from UniProt P01563 24-188) (ligand)
11,227 nM,IFNA2b_L49P_R172M (from UniProt P01563 24-188) (ligand)
12,18100 nM,IFNA2b_L49P_R172N (from UniProt P01563 24-188) (ligand)
13,65 nM,IFNA2b_L49P_S159H (from UniProt P01563 24-188) (ligand)
14,75 nM,IFNA2b_L49P_S183Y (from UniProt P01563 24-188) (ligand)
15,26100 nM,IFNA2b_L49P_V165D (from UniProt P01563 24-188) (ligand)
16,22900 nM,IFNA2b_L49P_V165F (from UniProt P01563 24-188) (ligand)
17,34400 nM,IFNA2b_L49P_V165G (from UniProt P01563 24-188) (ligand)

row,apparent Kd (pooled screen),Substance
1,18600 nM,IFNA2b_L49P_V165Q (from UniProt P01563 24-188) (ligand)
2,8960 nM,IFNA2b_L49P_V165R (from UniProt P01563 24-188) (ligand)
3,802 nM,IFNA2b_M44N_A168H (from UniProt P01563 24-188) (ligand)
4,23300 nM,IFNA2b_M44N_A168K (from UniProt P01563 24-188) (ligand)
5,20000 nM,IFNA2b_M44N_A168Q (from UniProt P01563 24-188) (ligand)
6,5820 nM,IFNA2b_M44N_G125Y (from UniProt P01563 24-188) (ligand)
7,416 nM,IFNA2b_M44N_K135G (from UniProt P01563 24-188) (ligand)
8,415 nM,IFNA2b_M44N_K187E (from UniProt P01563 24-188) (ligand)
9,541 nM,IFNA2b_M44N_L176R (from UniProt P01563 24-188) (ligand)
10,811 nM,IFNA2b_M44N_L184E (from UniProt P01563 24-188) (ligand)
11,5780 nM,IFNA2b_M44N_R167A (from UniProt P01563 24-188) (ligand)
12,4900 nM,IFNA2b_M44N_R167I (from UniProt P01563 24-188) (ligand)
13,8770 nM,IFNA2b_M44N_R172W (from UniProt P01563 24-188) (ligand)
14,942 nM,IFNA2b_M44N_S138W (from UniProt P01563 24-188) (ligand)
15,34500 nM,IFNA2b_M44N_S159D (from UniProt P01563 24-188) (ligand)
16,12300 nM,IFNA2b_M44N_S177D (from UniProt P01563 24-188) (ligand)
17,528 nM,IFNA2b_M44N_T150G (from UniProt P01563 24-188) (ligand)

# Molecular target: T1, mouse IFNAR2 (mouse)
# Assay: AlphaSeq (yeast mating, Aga2 display)
row,Substance,apparent Kd (pooled screen)
1,IFNA2b_L49P_A168D (from UniProt P01563 24-188) (ligand),586 nM
2,IFNA2b_L49P_K156Q (from UniProt P01563 24-188) (ligand),73 nM
3,IFNA2b_L49P_L140N (from UniProt P01563 24-188) (ligand),480 nM
4,IFNA2b_L49P_R167I (from UniProt P01563 24-188) (ligand),708 nM
5,IFNA2b_M44N_A120T (from UniProt P01563 24-188) (ligand),591 nM
6,IFNA2b_M44N_E188R (from UniProt P01563 24-187) (ligand),520 nM
7,IFNA2b_M44N_V128G (from UniProt P01563 24-188) (ligand),472 nM

# Now from value to substance:
row,apparent Kd (pooled screen),Substance
1,1950 nM,IFNA2b_L49P_R167L (from UniProt P01563 24-188) (ligand)
2,3000 nM,IFNA2b_L49P_R167T (from UniProt P01563 24-188) (ligand)
3,1740 nM,IFNA2b_L49P_R167V (from UniProt P01563 24-188) (ligand)
4,825 nM,IFNA2b_M44N_E130M (from UniProt P01563 24-188) (ligand)

# From US20240309062A1
